Article PMC12416549 (2024)
Changes are numbered by the printed parent chain. Names and notes keep the numbering of the source.

T1: TNFR1 (Homo sapiens, UniProt P19438)
T1 chain: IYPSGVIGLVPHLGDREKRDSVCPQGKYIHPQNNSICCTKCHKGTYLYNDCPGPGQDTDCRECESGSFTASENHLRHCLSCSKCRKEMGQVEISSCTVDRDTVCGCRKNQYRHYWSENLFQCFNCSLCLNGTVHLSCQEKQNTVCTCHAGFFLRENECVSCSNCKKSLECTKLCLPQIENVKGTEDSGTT

B1: A69F (designed binder)
chain: MTLQELLREEALRRAEAEAFRYALELLAEKFPEQKEYLLDLAEEIESQIRSLSGVDVEDVRKFLDKEWFWVKELLAEHPAELAEVEAARAARLAELRAEVEAKVAA
B2: L41S (designed binder)
chain: B1 chain with L41S, F69A
B3: V60K (designed binder)
chain: B1 chain with V60K, F69A
B4: L24V (designed binder)
chain: B1 chain with L24V, F69A
B5: E16S (designed binder)
chain: B1 chain with E16S, F69A
B6: L39N (designed binder)
chain: B1 chain with L39N, F69A
B7: E44D (designed binder)
chain: B1 chain with E44D, F69A
B8: A105G (designed binder)
chain: B1 chain with F69A, A105G
B9: A17Y (designed binder)
chain: B1 chain with A17Y, F69A
B10: E18N (designed binder)
chain: B1 chain with E18N, F69A
B11: S47R (designed binder)
chain: B1 chain with S47R, F69A
B12: F20Q (designed binder)
chain: B1 chain with F20Q, F69A
B13: R97F (designed binder)
chain: B1 chain with F69A, R97F
B14: K103P (designed binder)
chain: B1 chain with F69A, K103P
B15: A91L (designed binder)
chain: B1 chain with F69A, A91L
B16: A19L (designed binder)
chain: B1 chain with A19L, F69A
B17: L38F (designed binder)
chain: B1 chain with L38F, F69A
B18: K30E (designed binder)
chain: B1 chain with K30E, F69A
B19: A15G (designed binder)
chain: B1 chain with A15G, F69A
B20: V100D (designed binder)
chain: B1 chain with F69A, V100D
B21: F20R (designed binder)
chain: B1 chain with F20R, F69A
B22: F20I (designed binder)
chain: B1 chain with F20I, F69A
B23: Q34K (designed binder)
chain: B1 chain with Q34K, F69A
B24: A11R (designed binder)
chain: B1 chain with A11R, F69A
B25: A76T (designed binder)
chain: B1 chain with F69A, A76T
B26: A91P (designed binder)
chain: B1 chain with F69A, A91P
B27: K66Y (designed binder)
chain: B1 chain with K66Y, F69A
B28: Q48D (designed binder)
chain: B1 chain with Q48D, F69A
B29: Q34H (designed binder)
chain: B1 chain with Q34H, F69A
B30: L93N (designed binder)
chain: B1 chain with F69A, L93N
B31: A90T (designed binder)
chain: B1 chain with F69A, A90T
B32: L52T (designed binder)
chain: B1 chain with L52T, F69A
B33: E101I (designed binder)
chain: B1 chain with F69A, E101I
B34: A88Y (designed binder)
chain: B1 chain with F69A, A88Y
B35: L41W (designed binder)
chain: B1 chain with L41W, F69A
B36: E18K (designed binder)
chain: B1 chain with E18K, F69A
B37: E86H (designed binder)
chain: B1 chain with F69A, E86H
B38: A88W (designed binder)
chain: B1 chain with F69A, A88W
B39: L82F (designed binder)
chain: B1 chain with F69A, L82F
B40: E77Y (designed binder)
chain: B1 chain with F69A, E77Y
B41: F20E (designed binder)
chain: B1 chain with F20E, F69A
B42: K35T (designed binder)
chain: B1 chain with K35T, F69A
B43: W70E (designed binder)
chain: B1 chain with F69A, W70E
B44: D56V (designed binder)
chain: B1 chain with D56V, F69A
B45: R21E (designed binder)
chain: B1 chain with R21E, F69A
B46: Q48L (designed binder)
chain: B1 chain with Q48L, F69A
B47: V71N (designed binder)
chain: B1 chain with F69A, V71N
B48: A91Q (designed binder)
chain: B1 chain with F69A, A91Q
B49: E29A (designed binder)
chain: B1 chain with E29A, F69A
B50: S53K (designed binder)
chain: B1 chain with S53K, F69A
B51: A105Q (designed binder)
chain: B1 chain with F69A, A105Q
B52: A98Y (designed binder)
chain: B1 chain with F69A, A98Y
B53: L39E (designed binder)
chain: B1 chain with L39E, F69A
B54: V57E (designed binder)
chain: B1 chain with V57E, F69A
B55: R97G (designed binder)
chain: B1 chain with F69A, R97G
B56: L41N (designed binder)
chain: B1 chain with L41N, F69A
B57: V71G (designed binder)
chain: B1 chain with F69A, V71G
B58: W70L (designed binder)
chain: B1 chain with F69A, W70L
B59: V55Q (designed binder)
chain: B1 chain with V55Q, F69A

Biological target: T1, TNFR1
Experiment: yeast display SC50

Binder | apparent Kd (screen)
B1 | 0.956 nM
B2 | 1.16 nM
B3 | 3 nM
B4 | 0.653 nM
B5 | 0.653 nM
B6 | 2.48 nM
B7 | 7.78 nM
B8 | 0.869 nM
B9 | 0.593 nM
B10 | 0.49 nM
B11 | 0.49 nM
B12 | 2.25 nM
B13 | 0.49 nM
B14 | 0.539 nM
B15 | 0.539 nM
B16 | 2.05 nM
B17 | 0.653 nM
B18 | 0.49 nM
B19 | 0.539 nM
B20 | 0.593 nM

Binder | apparent Kd (screen)
B21 | 10.4 nM
B22 | 1.05 nM
B23 | 0.653 nM
B24 | 0.49 nM
B25 | 0.405 nM
B26 | 0.49 nM
B27 | 0.49 nM
B28 | 22.2 nM
B29 | 0.869 nM
B30 | 0.79 nM
B31 | 0.79 nM
B32 | 0.593 nM
B33 | 0.49 nM
B34 | 1.05 nM
B35 | 2.25 nM
B36 | 0.49 nM
B37 | 0.79 nM
B38 | 0.49 nM
B39 | 0.539 nM
B40 | 0.49 nM

Binder | apparent Kd (screen)
B41 | 5.31 nM
B42 | 0.539 nM
B43 | 26.9 nM
B44 | 2.73 nM
B45 | 0.49 nM
B46 | 2.73 nM
B47 | 0.869 nM
B48 | 0.49 nM
B49 | 0.718 nM
B50 | 2.73 nM
B51 | 0.539 nM
B52 | 0.539 nM
B53 | 2.48 nM
B54 | 1.86 nM
B55 | 0.539 nM
B56 | 2.05 nM
B57 | 22.2 nM
B58 | 22.2 nM
B59 | 1.05 nM
